The Km is the substrate concentration at which the rate is half of its maximum. One may read the Vmax as the top rate of the reaction or transport when substrate is in excess.

The record followed here is article PMC6515479, “An Investigation on Glucuronidation Metabolite Identification, Isozyme Contribution, and Species Differences of GL-V9 In Vitro and In Vivo” (Molecules, 2019).

What all share (format): in vitro ADME, human
Substrate in data set [1]: COc1c(OCCCCN2CCCC2)cc(O)c2c(=O)cc(-c3ccccc3)oc12
In words: Recombinant enzyme kinetics of GL-V9 glucuronidation, rUGT1A9. The settings on record: other: formation of 5-O-glucuronide GL-V9, rUGT1A9, protein 0.06 mg/mL, 1 h at 37 °C, mean ± SD, n = 3, pH 7.4.

Substrate in data set [2]: COc1c(OCCCCN2CCCC2)cc(O)c2c(=O)cc(-c3ccccc3)oc12
Put plainly: Recombinant enzyme kinetics of GL-V9 glucuronidation, rUGT1A8. The settings on record: other: formation of 5-O-glucuronide GL-V9, rUGT1A8, protein 0.06 mg/mL, 1 h at 37 °C, mean ± SD, n = 3, pH 7.4. As to the method:
[The source words this procedure for another target and says it was used here with some conditions changed.] (§1) The composition of the incubation system (200 μL) contained liver microsomes of different species (0.1 mg protein/mL), 5 mM saccharolactone (D-saccharic acid 1,4-lactone monohydrate), 10 mM MgCl2, alamethicin (50 μg/mg protein), Tris-HCl buffer (50 mM, pH 7.4) and GL-V9 (1 μM). After 5 min of preincubation at 37 °C, UDPGA (5 mM) was added to initiate the phase II reaction. Control incubation samples were performed without UDPGA or without substrates (GL-V9). The reaction was terminated by addition of ice-cold methanol (three volumes) after incubation for 1 h at 37 °C. Samples were vortexed, centrifuged at 21,500× g for 10 min and then stored at 4 °C until HPLC-UV-TripleTOF analysis. To confirm that these metabolites are conjugates resulting from glucuronidation reaction, enzymatic hydrolysis of samples was processed. β-glucuronidase (100 KU, Sigma) was added and the hydrolysis was performed overnight at 37 °C. The control samples were carried out without β-glucuronidase under the same condition.
(§2) Rates of the glucuronidation of GL-V9 were described as amounts of glucuronides formed per minute per milligram (pmol/min/mg). The calculation model of kinetic parameters was selected by the profile of Eadie-Hofstee plots. It often includes three possibilities: (1) the Eadie-Hofstee plot was linear, the formation rates of glucuronides (V) at different substrate concentrations (C) were fit to the standard Michaelis-Menten calculation of GraphPad Prism (version 6.02, GraphPad Software Inc., Guildford, Surrey, UK); (2) the Eadie-Hofstee plot was atypical kinetic-autoactivation, the rates and concentration were fit with the allosteric sigmoidal function of GraphPad Prism; (3) the Eadie-Hofstee plot was atypical kinetic-biphasic, the rates and concentration were fit with the […] of GraphPad Prism.

Substrate in data set [3]: COc1c(OCCCCN2CCCC2)cc(O)c2c(=O)cc(-c3ccccc3)oc12
In words: Recombinant enzyme kinetics of GL-V9 glucuronidation, rUGT1A7. The note with it: other: formation of 5-O-glucuronide GL-V9, rUGT1A7, protein 0.05 mg/mL, 1 h at 37 °C, mean ± SD, n = 3, pH 7.4. Here is the method: [The source words this procedure for another target and says it was used here with some conditions changed.] as §1, §2

B1: rUGT1A9 (Homo sapiens) (protein)
chain: GKLLVVPMDGSHWFTMRSVVEKLILRGHEVVVVMPEVSWQLGRSLNCTVKTYSTSYTLEDLDREFKAFAHAQWKAQVRSIYSLLMGSYNDIFDLFFSNCRSLFKDKKLVEYLKESSFDAVFLDPFDNCGLIVAKYFSLPSVVFARGILCHYLEEGAQCPAPLSYVPRILLGFSDAMTFKERVRNHIMHLEEHLLCHRFFKNALEIASEILQTPVTEYDLYSHTSIWLLRTDFVLDYPKPVMPNMIFIGGINCHQGKPLPMEFEAYINASGEHGIVVFSLGSMVSEIPEKKAMAIADALGKIPQTVLWRYTGTRPSNLANNTILVKWLPQNDLLGHPMTRAFITHAGSHGVYESICNGVPMVMMPLFGDQMDNAKRMETKGAGVTLNVLEMTSEDLENALKAVINDKSYKENIMRLSSLHKDRPVEPLDLAVFWVEFVMRHKGAPHLRPAAHDLTWYQYHSLDVIGFLLAVVLTVAFITFKCCAYGYRKCLGKKGRVKKAHKSKTH
notes: purchased Corning (Woburn, MA, USA)
Turning to B1, in data set [1], the Km worked out at 4.72 ± 0.28 µM and the maximal velocity (Vmax) worked out at 0.000148 µmol/min/mg.

B2: rUGT1A8 (Homo sapiens) (protein)
chain: GKLLVVPMDGSHWFTMQSVVEKLILRGHEVVVVMPEVSWQLGKSLNCTVKTYSTSYTLEDLDREFMDFADAQWKAQVRSLFSLFLSSSNGFFNLFFSHCRSLFNDRKLVEYLKESSFDAVFLDPFDACGLIVAKYFSLPSVVFARGIACHYLEEGAQCPAPLSYVPRILLGFSDAMTFKERVRNHIMHLEEHLFCQYFSKNALEIASEILQTPVTAYDLYSHTSIWLLRTDFVLDYPKPVMPNMIFIGGINCHQGKPLPMEFEAYINASGEHGIVVFSLGSMVSEIPEKKAMAIADALGKIPQTVLWRYTGTRPSNLANNTILVKWLPQNDLLGHPMTRAFITHAGSHGVYESICNGVPMVMMPLFGDQMDNAKRMETKGAGVTLNVLEMTSEDLENALKAVINDKSYKENIMRLSSLHKDRPVEPLDLAVFWVEFVMRHKGAPHLRPAAHDLTWYQYHSLDVIGFLLAVVLTVAFITFKCCAYGYRKCLGKKGRVKKAHKSKTH
notes: as for B1
Consider B2, for which, in data set [2], the Km came out at 13.92 ± 1.05 µM, the maximal velocity (Vmax) is 5.06e-05 µmol/min/mg and the Vmax/Km came out at 3.64 µL/min/mg.

B3: rUGT1A7 (Homo sapiens) (protein)
chain: GKLLVVPMDGSHWFTMQSVVEKLILRGHEVVVVMPEVSWQLGRSLNCTVKTYSTSYTLEDQDREFMVFADARWTAPLRSAFSLLTSSSNGIFDLFFSNCRSLFNDRKLVEYLKESCFDAVFLDPFDACGLIVAKYFSLPSVVFARGIFCHYLEEGAQCPAPLSYVPRLLLGFSDAMTFKERVWNHIMHLEEHLFCPYFFKNVLEIASEILQTPVTAYDLYSHTSIWLLRTDFVLEYPKPVMPNMIFIGGINCHQGKPVPMEFEAYINASGEHGIVVFSLGSMVSEIPEKKAMAIADALGKIPQTVLWRYTGTRPSNLANNTILVKWLPQNDLLGHPMTRAFITHAGSHGVYESICNGVPMVMMPLFGDQMDNAKRMETKGAGVTLNVLEMTSEDLENALKAVINDKSYKENIMRLSSLHKDRPVEPLDLAVFWVEFVMRHKGAPHLRPAAHDLTWYQYHSLDVIGFLLAVVLTVAFITFKCCAYGYRKCLGKKGRVKKAHKSKTH
notes: as for B1
For B3, in data set [3], the Michaelis constant (Km) was found to be 3.25 ± 0.29 µM, the Vmax was found to be 3.11e-05 µmol/min/mg and the Vmax/Km came to 9.58 µL/min/mg.
